Where two headings read alike, the source gives them in different places.
Tests used:
human PD-1 = human PD-1 (human, UniProt Q15116 25-167); test: ELISA, plate coated with the antigen
human B7H4 = molecular target: T1, human B7H4 (human, UniProt Q7Z7D3 25-258, limits assumed); test: ELISA, plate coated with the antigen
T1 construct: also called VTCN1
T1 sequence (looked up): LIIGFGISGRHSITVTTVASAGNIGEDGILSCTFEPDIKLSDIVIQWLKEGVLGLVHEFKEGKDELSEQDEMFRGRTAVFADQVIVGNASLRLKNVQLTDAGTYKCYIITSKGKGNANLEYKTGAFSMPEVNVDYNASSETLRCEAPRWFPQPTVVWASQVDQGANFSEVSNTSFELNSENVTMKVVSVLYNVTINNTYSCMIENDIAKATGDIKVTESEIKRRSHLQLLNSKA

human B7H6 [1] = molecular target: T2, human B7H6 (human, UniProt Q68D85 25-262); test: ELISA, plate coated with the antigen
T2 construct: also called NCR3LG1
T2 sequence (looked up): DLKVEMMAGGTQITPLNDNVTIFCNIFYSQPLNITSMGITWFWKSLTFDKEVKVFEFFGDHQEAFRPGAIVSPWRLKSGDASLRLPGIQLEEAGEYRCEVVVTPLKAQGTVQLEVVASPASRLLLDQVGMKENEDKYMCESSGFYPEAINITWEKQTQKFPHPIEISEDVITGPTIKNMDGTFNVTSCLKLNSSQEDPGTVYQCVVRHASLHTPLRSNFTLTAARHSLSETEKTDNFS

human B7H7 [2] = molecular target: T3, human B7H7 (human, UniProt Q9UM44 23-344); test: ELISA, plate coated with the antigen
T3 construct: also called HHLA2
T3 sequence (looked up): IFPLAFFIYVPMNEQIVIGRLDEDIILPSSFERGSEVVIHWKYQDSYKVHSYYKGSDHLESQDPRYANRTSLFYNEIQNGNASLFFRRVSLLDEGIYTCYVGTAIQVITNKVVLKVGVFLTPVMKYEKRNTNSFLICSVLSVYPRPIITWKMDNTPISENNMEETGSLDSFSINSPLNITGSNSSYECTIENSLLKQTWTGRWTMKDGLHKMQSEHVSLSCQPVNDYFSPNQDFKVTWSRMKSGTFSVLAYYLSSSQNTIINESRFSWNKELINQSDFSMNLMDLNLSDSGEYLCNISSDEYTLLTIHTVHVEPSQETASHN

human B7H7 [3] = molecular target: T3, human B7H7; test: ELISA, plate coated with the antigen; remark: listed apart in the source
[4] = molecular target: T4, recombinant human VISTA (His-tagged) (human, UniProt Q9H7M9 33-194); test: ELISA, VISTA-HIS protein coated; ELISA, human VISTA-HIS
T4 construct: bought soluble protein (Sino Biological); also called hVISTA; human VISTA polypeptide
Description: (§1) 384-well plates were coated with 1 μg/ml of target antigen diluted in PBS for 16 hrs at 4° C. […] After washing, plates were developed with colorimetric detection substrate 3,3′,5,5′-tetramethylbenzidine (Turbo-TMB; Pierce) for 10 min.

[5] = molecular target: T4, recombinant human VISTA (His-tagged); test: antigen-binding ELISA; HMBD-002 10 mg/mL in F1, day 0
[6] = molecular target: T4, recombinant human VISTA (His-tagged); test: antigen-binding ELISA; HMBD-002 10 mg/mL in F7, day 0
[7] = molecular target: T4, recombinant human VISTA (His-tagged); test: antigen-binding ELISA; HMBD-002 in F1, day 10 at 40°C
[8] = molecular target: T4, recombinant human VISTA (His-tagged); test: antigen-binding ELISA; HMBD-002 in F3, day 30 at 40°C
[9] = molecular target: T4, recombinant human VISTA (His-tagged); test: antigen-binding ELISA; HMBD-002 in F4, day 10 at 40°C
[10] = molecular target: T4, recombinant human VISTA (His-tagged); test: antigen-binding ELISA; HMBD-002 in F4, day 30 at 40°C
[11] = molecular target: T4, recombinant human VISTA (His-tagged); test: antigen-binding ELISA; HMBD-002 in F8, day 30 at 40°C
[12] = molecular target: T4, recombinant human VISTA (His-tagged); test: antigen-binding ELISA; HMBD-002 in F9, day 10 at 40°C
[13] = molecular target: T4, recombinant human VISTA (His-tagged); test: antigen-binding ELISA; HMBD-002 in F10, day 30 at 40°C
[14] = molecular target: T5, human VISTA expressed on cells (human, UniProt Q9H7M9 33-311); test: flow cytometry, endogenous VISTA on CD11b+ myeloid cells of PBMCs
T5 construct: also called HEK293 VISTA O/E; HEK293T or HEK293-6E cells overexpressing human VISTA
Description: To identify myeloid cells, PBMCs were further incubated with CD45 FITC and CD11b PE. Cells were washed again and resuspended in 200 μL of FACS flow buffer (PBS with 5 mM EDTA) for flow cytometric analysis using MACSQuant 10 (Miltenyi). After acquisition, all raw data were analyzed using Flowlogic software. Cells were gated using forward and side scatter, and the percentage of positive cells was determined.

human B7H6 [15] = molecular target: T2, human B7H6; test: ELISA, plate coated with human B7H6, antibody titrated
Description: as §1

[16] = molecular target: T6, recombinant cynomolgus macaque VISTA (His-tagged) (cynomolgus macaque, UniProt A0A7N9IB00 33-194); test: ELISA, NHP VISTA-HIS protein coated; ELISA, NHP (cynomolgus) VISTA-HIS
T6 construct: also called cyno VISTA; cynomolgus monkey VISTA
Description: as §1

[17] = molecular target: T4, recombinant human VISTA (His-tagged); test: antigen-binding ELISA; reference standard run with the day 30 samples
[18] = molecular target: T4, recombinant human VISTA (His-tagged); test: ELISA on coated human VISTA, antibody diluted in buffer of pH 5.5
Description: as §1

human C1q protein = human C1q protein (human, UniProt P02745 23-245; P02746 28-253; P02747 29-245); test: ELISA, plate coated with human C1q protein, detection with HRP anti-human Fc antibody
Sequence of human C1q protein (P02745 23-245 limits assumed, chain 1 of 3): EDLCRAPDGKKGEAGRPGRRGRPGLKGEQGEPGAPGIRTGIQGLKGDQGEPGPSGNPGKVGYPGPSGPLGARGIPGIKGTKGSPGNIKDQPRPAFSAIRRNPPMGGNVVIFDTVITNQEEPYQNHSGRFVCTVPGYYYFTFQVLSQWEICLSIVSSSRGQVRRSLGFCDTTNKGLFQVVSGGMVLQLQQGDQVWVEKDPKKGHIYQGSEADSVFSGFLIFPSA
Sequence of human C1q protein (P02746 28-253 limits assumed, chain 2 of 3): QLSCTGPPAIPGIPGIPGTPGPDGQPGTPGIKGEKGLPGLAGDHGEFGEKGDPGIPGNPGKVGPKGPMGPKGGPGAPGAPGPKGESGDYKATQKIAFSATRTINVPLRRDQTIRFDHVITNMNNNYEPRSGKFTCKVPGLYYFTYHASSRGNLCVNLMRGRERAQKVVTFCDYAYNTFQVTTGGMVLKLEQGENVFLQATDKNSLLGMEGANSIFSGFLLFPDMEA
Sequence of human C1q protein (P02747 29-245 limits assumed, chain 3 of 3): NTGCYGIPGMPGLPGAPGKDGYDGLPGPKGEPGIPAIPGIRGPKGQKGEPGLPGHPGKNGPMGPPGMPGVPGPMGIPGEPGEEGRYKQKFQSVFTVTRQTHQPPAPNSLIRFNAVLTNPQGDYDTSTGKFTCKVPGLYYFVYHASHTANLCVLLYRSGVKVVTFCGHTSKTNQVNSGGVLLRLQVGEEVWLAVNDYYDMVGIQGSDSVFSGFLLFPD
Description: 96 well plates were coated with either 1 μg/well of human C1q protein or 0.5 μg/well of human CD16a in PBS at 4° C. Post overnight incubation, plates were washed thrice and blocked for 1 hr with blocking buffer at room temperature. […] Colorimetric reactions were developed using standard protocol as described for ELISA above.

Sequence of human PD-1 (Q15116 25-167 limits assumed): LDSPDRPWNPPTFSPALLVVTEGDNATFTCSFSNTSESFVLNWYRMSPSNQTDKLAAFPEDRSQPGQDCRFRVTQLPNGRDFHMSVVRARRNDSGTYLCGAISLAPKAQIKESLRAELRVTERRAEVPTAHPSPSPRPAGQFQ

B1: anti-VISTA clone 4M2-C12 IgG1 (antibody)
heavy: not shown
light: DIVITQTPAILSTSPGEKVTMTCRASSSVGYIHWYQQKPGSSPKPWIYATSNLASGVPARFSGSGSGTSNSLTITRVEAEDAATYYCQQWSSYPPITFGGGTKLEVKRTVAAPSVFIFPPSDEQLKSGTASVVCLLNNFYPREAKVQWKVDNALQSGNSQESVTEQDSKDSTYSLSSTLTLSKADYEKHKVYACEVTHQGLSSPVTKSFNRGEC
notes: mouse variable regions on human IgG1/kappa constant regions; also called V4; V4pr
Human PD-1
  binding result: no binding (tested: log -7.5 M)
Human B7H4
  binding result: no binding (tested: log -7.5 M)
Human B7H6 [1]
  binding result: no binding (tested: log -7.5 M)
Human B7H7 [2]
  binding result: no binding (tested: log -7.5 M)

B2: anti-VISTA clone V4-C27 IgG1 (antibody, V domains shown)
VH: QVQLQESGPGLVKPSDTLSLTCTVSGYSITSDYTWNWIRQTPGKGLEWIGHITYSGSVSYNPSLRSRVTISRDTSKNQFSLKLSSVTAADTATYSCARALYYPWYFDVWGTGTTVTVSS
VL: EIVLTQSPATLSLSPGERATLSCRASSSVGYIHWYQQKPGQAPRPLIYATYNRATGIPARFSGSGSGTDNTLTISSLEPEDSAVYYCQQWSSYPPITFGGGTKLEVKR
Human B7H7 [3]
  binding result: no binding (tested: log -7.5 M)

B3: V4-C26 hIgG4 (antibody)
heavy: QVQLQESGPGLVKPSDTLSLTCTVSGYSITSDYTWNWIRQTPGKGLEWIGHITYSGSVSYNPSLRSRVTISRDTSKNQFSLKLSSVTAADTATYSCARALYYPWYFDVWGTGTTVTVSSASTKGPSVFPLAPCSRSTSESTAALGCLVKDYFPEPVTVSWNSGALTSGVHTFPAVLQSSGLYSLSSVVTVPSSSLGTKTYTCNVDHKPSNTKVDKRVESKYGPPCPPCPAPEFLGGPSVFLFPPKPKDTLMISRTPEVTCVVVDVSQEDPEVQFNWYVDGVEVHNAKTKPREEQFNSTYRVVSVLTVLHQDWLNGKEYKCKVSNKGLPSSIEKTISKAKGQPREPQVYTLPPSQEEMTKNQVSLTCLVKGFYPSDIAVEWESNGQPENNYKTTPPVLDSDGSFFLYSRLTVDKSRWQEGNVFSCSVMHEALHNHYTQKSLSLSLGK
light: EIVLTQSPATLSLSPGERATLSCRASSSVGYIHWYQQKPGQAPRPIIYTTSNRATGIPARFSGSGSGTDNTLTISSLEPEDSAVYYCQQWSSYPPITFGGGTKLEVKRTVAAPSVFIFPPSDEQLKSGTASVVCLLNNFYPREAKVQWKVDNALQSGNSQESVTEQDSKDSTYSLSSTLTLSKADYEKHKVYACEVTHQGLSSPVTKSFNRGEC
notes: human IgG4 (S228P)/kappa format; also called HMBD-002; HMBD-002-V4C26
[4]
  EC50: 5.12 pM
[5]
  EC50: 40 pM
[6]
  EC50: 28.9 pM
[7]
  EC50: 30.6 pM
[8]
  EC50: 22.7 pM
[9]
  EC50: 32.5 pM
[10]
  EC50: 22.7 pM
[11]
  EC50: 22.7 pM
[12]
  EC50: 30.5 pM
[13]
  EC50: 27 pM
[14]
  EC50: 108000 pM
Human B7H6 [15]
  binding result: no binding (tested: about 3e-8 M)
[16]
  EC50: 12.1 pM
[17]
  EC50: 52.7 pM
[18]
  EC50: 73.1 pM
Human C1q protein
  binding result: no binding (tested: about 2e-7 M)
